{
  "source": "the supplement of paper PMC10126150",
  "note": "± gives the standard deviation of the averaged measurements.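 Also: ATP exposure 15 min at 22 °C before imaging.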",
  "data": [
    {"system": "ATP", "test": "switch fluorescence ratio, 500 uM ATP over buffer (Cy3 cluster intensity, sum of 5 cycles each) (fold (ratio)); higher = stronger signal-on switching upon ATP binding; sequences stand for … in TCGTCGGCAGCGTCAGATGTGTATAAGAGACAGTTTTTTTTTTTTTTTTTTTTTTTTT…TC", "settings": "aptamer strand: ATP DNA aptamer (quencher-CACCTGGGGGAGTATTGCGGAGGAAGG + anchor), 100 nM annealed; ATP concentration: 500 uM", "in_short": "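Cy3-labelled switching-strand clusters on a modified Illumina MiSeq flow-cell were annealed to 100 nM quencher-labelled ATP aptamer, imaged in selection buffer, then imaged after 15 min with 500 uM ATP at 22 °C. Five buffer/ATP cycles ran, with NaOH stripping and re-annealing between them. The fluorescence ratio is summed target-cycle over summed buffer-cycle Cy3 intensity per cluster, averaged per switch-domain sequence. Clusters outside 100-1000 RFU were excluded.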", "values": [
      {"sequence": "ATCGTTATCA", "switch fluorescence ratio": "0.991 ± 0.056"},
      {"sequence": "GAACGAACGG", "switch fluorescence ratio": "1.08 ± 0.06"},
      {"sequence": "TGTTATATAG", "switch fluorescence ratio": "1.01 ± 0.033"},
      {"sequence": "GGGGGCTAGT", "switch fluorescence ratio": "0.991 ± 0.056"},
      {"sequence": "CACTTGGAGC", "switch fluorescence ratio": "0.944 ± 0.059"},
      {"sequence": "TTACTCGGGA", "switch fluorescence ratio": "1.04 ± 0.012"},
      {"sequence": "AGACGAGGCT", "switch fluorescence ratio": "1.01 ± 0.021"},
      {"sequence": "GGGTCTTCTC", "switch fluorescence ratio": "1.01 ± 0.053"},
      {"sequence": "AATGGTAGGG", "switch fluorescence ratio": "1 ± 0.03"},
      {"sequence": "GCCTGAAAGG", "switch fluorescence ratio": "0.993 ± 0.022"},
      {"sequence": "AAGGGTGCGT", "switch fluorescence ratio": "1.01 ± 0.044"},
      {"sequence": "GGTAAAGGGT", "switch fluorescence ratio": "0.991 ± 0.016"},
      {"sequence": "AATGTTTGTT", "switch fluorescence ratio": "0.971 ± 0.015"},
      {"sequence": "GGTGAATAAT", "switch fluorescence ratio": "0.9969 ± 0.0065"},
      {"sequence": "TGAGTGGGGT", "switch fluorescence ratio": "1.02 ± 0.031"},
      {"sequence": "AGCCATATTT", "switch fluorescence ratio": "1.04 ± 0.028"},
      {"sequence": "TTTTTTCTTA", "switch fluorescence ratio": "0.995 ± 0.023"},
      {"sequence": "TTCGGAGTAC", "switch fluorescence ratio": "1.38 ± 0.14"},
      {"sequence": "ATCTTAGTGC", "switch fluorescence ratio": "1 ± 0.026"},
      {"sequence": "TTTATCGGTA", "switch fluorescence ratio": "1.01 ± 0.03"},
      {"sequence": "TGTGAAGGTT", "switch fluorescence ratio": "0.986 ± 0.054"},
      {"sequence": "ATGGTCAGGT", "switch fluorescence ratio": "1.01 ± 0.019"},
      {"sequence": "AGAAGGGTAT", "switch fluorescence ratio": "0.976 ± 0.017"},
      {"sequence": "TGCTCTTTCA", "switch fluorescence ratio": "1 ± 0.025"},
      {"sequence": "TTGGGGGTTC", "switch fluorescence ratio": "1.01 ± 0.05"},
      {"sequence": "TGTGGCCGGG", "switch fluorescence ratio": "0.998 ± 0.024"},
      {"sequence": "CAGCTTGTTT", "switch fluorescence ratio": "1.01 ± 0.02"},
      {"sequence": "AGCGCGCGGC", "switch fluorescence ratio": "0.998 ± 0.013"},
      {"sequence": "CCGGTGTGAG", "switch fluorescence ratio": "1.04 ± 0.021"},
      {"sequence": "ACTGCAGAAC", "switch fluorescence ratio": "1.9 ± 0.34"},
      {"sequence": "GGTCCAGGTC", "switch fluorescence ratio": "1.12 ± 0.057"},
      {"sequence": "AAGGGTAACA", "switch fluorescence ratio": "0.991 ± 0.019"},
      {"sequence": "GGCTGCATGC", "switch fluorescence ratio": "1.08 ± 0.023"},
      {"sequence": "TTTGGGCCTC", "switch fluorescence ratio": "0.9842 ± 0.0021"},
      {"sequence": "CGTAATAGAT", "switch fluorescence ratio": "1.02 ± 0.026"},
      {"sequence": "CCTGGGGATT", "switch fluorescence ratio": "1.07 ± 0.18"},
      {"sequence": "ACCATGCGTC", "switch fluorescence ratio": "0.99 ± 0.031"},
      {"sequence": "GAAGTAGAGT", "switch fluorescence ratio": "0.963 ± 0.028"},
      {"sequence": "AGGGCTGTTA", "switch fluorescence ratio": "0.998 ± 0.033"},
      {"sequence": "TCGTTCGTAT", "switch fluorescence ratio": "0.9875 ± 0.004"},
      {"sequence": "CGTCCACAGG", "switch fluorescence ratio": "2.96 ± 0.092"},
      {"sequence": "ACGGGGCGTA", "switch fluorescence ratio": "0.98581 ± 0.00064"},
      {"sequence": "TGCATGATCG", "switch fluorescence ratio": "1.02 ± 0.033"},
      {"sequence": "TTCATATCAT", "switch fluorescence ratio": "1 ± 0.03"},
      {"sequence": "GCATCATGTT", "switch fluorescence ratio": "0.987 ± 0.044"},
      {"sequence": "AAGGAGCTTG", "switch fluorescence ratio": "0.9735 ± 0.0038"},
      {"sequence": "CGTAACGTGG", "switch fluorescence ratio": "0.9938 ± 0.0078"},
      {"sequence": "GGTTTGAGAG", "switch fluorescence ratio": "0.989 ± 0.048"},
      {"sequence": "TTTGGTTAGG", "switch fluorescence ratio": "0.985 ± 0.019"},
      {"sequence": "ATGTATCGGC", "switch fluorescence ratio": "1.01 ± 0.06"},
      {"sequence": "AAGTTAAGGG", "switch fluorescence ratio": "0.995 ± 0.055"},
      {"sequence": "CATATTTGAC", "switch fluorescence ratio": "1.04 ± 0.074"},
      {"sequence": "TTGTGGTTGG", "switch fluorescence ratio": "0.994 ± 0.021"},
      {"sequence": "TGTAATTGGG", "switch fluorescence ratio": "0.9881 ± 0.0015"},
      {"sequence": "GCCAGATAGG", "switch fluorescence ratio": "0.9562 ± 0.0088"},
      {"sequence": "TTGACTTATA", "switch fluorescence ratio": "1.01 ± 0.022"},
      {"sequence": "CTTTGGCAGA", "switch fluorescence ratio": "1.03 ± 0.043"},
      {"sequence": "GGGTTTCATG", "switch fluorescence ratio": "0.995 ± 0.024"},
      {"sequence": "ATCCGTGGTT", "switch fluorescence ratio": "1.01 ± 0.047"},
      {"sequence": "AGAATGATCG", "switch fluorescence ratio": "0.994 ± 0.033"},
      {"sequence": "TGATGACCAT", "switch fluorescence ratio": "1.006 ± 0.0079"},
      {"sequence": "GTTAGAGTCA", "switch fluorescence ratio": "1.01 ± 0.013"},
      {"sequence": "TTGGTTATAG", "switch fluorescence ratio": "1.01 ± 0.011"},
      {"sequence": "ATGGGGGAA", "switch fluorescence ratio": "0.997 ± 0.042"},
      {"sequence": "ATCGGGCTGT", "switch fluorescence ratio": "1.03 ± 0.013"},
      {"sequence": "GATGTGGGTA", "switch fluorescence ratio": "0.992 ± 0.045"},
      {"sequence": "TAATAAGCGG", "switch fluorescence ratio": "0.976 ± 0.035"},
      {"sequence": "TTTTTTGAGG", "switch fluorescence ratio": "0.981 ± 0.025"},
      {"sequence": "AGTCAACTTG", "switch fluorescence ratio": "1.01 ± 0.053"},
      {"sequence": "TTAAAGATAT", "switch fluorescence ratio": "1.23 ± 0.32"},
      {"sequence": "CGGGAGCTGT", "switch fluorescence ratio": "1.01 ± 0.072"},
      {"sequence": "CCGTAGTGGT", "switch fluorescence ratio": "2.9 ± 1.4"},
      {"sequence": "TTTACCGCTC", "switch fluorescence ratio": "1.26 ± 0.073"},
      {"sequence": "ATGTATCATG", "switch fluorescence ratio": "1 ± 0.033"},
      {"sequence": "GGAGGGTGAG", "switch fluorescence ratio": "0.984 ± 0.014"},
      {"sequence": "AGGGGCGGGC", "switch fluorescence ratio": "0.884 ± 0.13"},
      {"sequence": "TGCATGGAGC", "switch fluorescence ratio": "0.9946 ± 0.0042"},
      {"sequence": "TGTTAAATTT", "switch fluorescence ratio": "1.01 ± 0.045"},
      {"sequence": "AATCTCCGAG", "switch fluorescence ratio": "1.09 ± 0.031"},
      {"sequence": "CATTTCAGTG", "switch fluorescence ratio": "0.988 ± 0.025"},
      {"sequence": "AACTTTTCAT", "switch fluorescence ratio": "1.02 ± 0.02"},
      {"sequence": "GGTCCTGTTG", "switch fluorescence ratio": "1.01 ± 0.035"},
      {"sequence": "GAAATACAAC", "switch fluorescence ratio": "1.04 ± 0.028"},
      {"sequence": "GACTTGCTGA", "switch fluorescence ratio": "1 ± 0.049"},
      {"sequence": "CCTATGGTTC", "switch fluorescence ratio": "1.07 ± 0.053"},
      {"sequence": "CTTGATGCAG", "switch fluorescence ratio": "0.996 ± 0.053"},
      {"sequence": "TAGCTTGTCA", "switch fluorescence ratio": "0.9884 ± 0.0065"},
      {"sequence": "CCTGGGGTAT", "switch fluorescence ratio": "1.09 ± 0.05"},
      {"sequence": "GGTTATGCAG", "switch fluorescence ratio": "0.977 ± 0.1"},
      {"sequence": "CAGGGCGGGG", "switch fluorescence ratio": "0.979 ± 0.037"},
      {"sequence": "TTTCTGTACG", "switch fluorescence ratio": "1.1 ± 0.068"},
      {"sequence": "AGGACGAGGG", "switch fluorescence ratio": "0.983 ± 0.013"},
      {"sequence": "GGGGGTGTTC", "switch fluorescence ratio": "0.991 ± 0.028"},
      {"sequence": "GGGATATTAG", "switch fluorescence ratio": "0.994 ± 0.034"},
      {"sequence": "CTATAGTCAA", "switch fluorescence ratio": "1.38 ± 0.026"},
      {"sequence": "TTATGCAGGG", "switch fluorescence ratio": "1.01 ± 0.012"},
      {"sequence": "GTATTAGAAG", "switch fluorescence ratio": "0.975 ± 0.047"},
      {"sequence": "GGGGGTCGC", "switch fluorescence ratio": "1 ± 0.065"},
      {"sequence": "AGAAGATTGA", "switch fluorescence ratio": "0.999 ± 0.019"},
      {"sequence": "TTTTCAAATT", "switch fluorescence ratio": "1.01 ± 0.028"}
    ]}
  ]
}
